The assay concerns the target T1, Histidine-tagged recombinant human FcγRI (CD64) (human, UniProt P12314 16-288).
T1 construct: bought; also called Sino Biological Cat. No. 12056-H08H
The assay is described as follows: SPR, culture supernatant, captured His-FcγRI. (SPR reads the build-up and loss of mass on a sensor chip optically.)
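Further: biacore T200 SPR at 25 °C, anti-His capture, supernatants of HEK293 cells expressing IgG1 Fc variants injected 1 min, reference-subtracted response read 55 s after injection start.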

Method: Binding analysis was carried out by surface plasmon resonance at 25° C. using a Biacore® T200 instrument with Biacore® T200 control software. The running buffer (HBS-EP+) consisted of 0.01 M HEPES pH 7.4, containing 0.15 M NaCl, 3 mM EDTA, and 0.05% v/v Surfactant P20. The sample compartment was held at 4° C. during analysis.
The cell was activated by treatment with EDC/NHS for 7 min. The antibody was diluted to 5 μg/mL in 10 mM sodium acetate pH 4.5 and injected for 7 min at 5 μL/min. The flow cell was deactivated by injection of 1M ethanolamine for 7 min. This process was repeated in the absence of anti-his antibody on a separate flow cell to generate a reference surface. […] Samples of undiluted culture supernatants from HEK293 cells expressing human IgG1 antibodies comprising variant Fc regions were injected for 1 min at 30 μL/min and allowed to disassociate for 2 min. […] Therefore, regeneration between cycles was not necessary. Responses on the test flow cell (coupled with anti-His antibody) were analysed after subtraction of responses on the control flow cell (sham-coupled). The relative binding response was measured 55 sec after the beginning of sample injection. To account for any possible drift in response due to slow dissociation of the His-tagged FcγRI, the binding response was measured relative to a baseline interpolated between report points located before sample injection and at the end of dissociation.
The whole experiment was repeated three times. Due to the relatively crude nature of the samples (variable refractive index, presence of culture media and other cellular products), some sensorgrams were unsatisfactory and were eliminated from analysis. The mean and standard deviation of binding response was then calculated for each sample.

B1: anti-CD20 human IgG1 L234D/L235I/G236R (antibody)
heavy: QVQLQQPGAELVKPGASVKMSCKASGYTFTSYNMHWVKQTPGRGLEWIGAIYPGNGDTSYNQKFKGKATLTADKSSSTAYMQLSSLTSEDSAVYYCARSTYYGGDWYFNVWGAGTTVTVSSASTKGPSVFPLAPSSKSTSGGTAALGCLVKDYFPEPVTVSWNSGALTSGVHTFPAVLQSSGLYSLSSVVTVPSSSLGTQTYICNVNHKPSNTKVDKKVEPKSCDKTHTCPPCPAPEDIRGPSVFLFPPKPKDTLMISRTPEVTCVVVDVSHEDPEVKFNWYVDGVEVHNAKTKPREEQYNSTYRVVSVLTVLHQDWLNGKEYKCKVSNKALPAPIEKTISKAKGQPREPQVYTLPPSRDELTKNQVSLTCLVKGFYPSDIAVEWESNGQPENNYKTTPPVLDSDGSFFLYSKLTVDKSRWQQGNVFSCSVMHEALHNHYTQKSLSLSPGK
light: QIVLSQSPAILSASPGEKVTMTCRASSSVSYIHWFQQKPGSSPKPWIYATSNLASGVPVRFSGSGSGTSYSLTISRVEAEDAATYYCQQWTSNPPTFGGGTKLEIKRTVAAPSVFIFPPSDEQLKSGTASVVCLLNNFYPREAKVQWKVDNALQSGNSQESVTEQDSKDSTYSLSSTLTLSKADYEKHKVYACEVTHQGLSSPVTKSFNRGEC
notes: also called 1-22; copies: 2 + 2
B1: the Mean binding response was 25.3 RU.

B2: anti-CD20 human IgG1 L234D/L235Q/G236R (antibody)
heavy: QVQLQQPGAELVKPGASVKMSCKASGYTFTSYNMHWVKQTPGRGLEWIGAIYPGNGDTSYNQKFKGKATLTADKSSSTAYMQLSSLTSEDSAVYYCARSTYYGGDWYFNVWGAGTTVTVSSASTKGPSVFPLAPSSKSTSGGTAALGCLVKDYFPEPVTVSWNSGALTSGVHTFPAVLQSSGLYSLSSVVTVPSSSLGTQTYICNVNHKPSNTKVDKKVEPKSCDKTHTCPPCPAPEDQRGPSVFLFPPKPKDTLMISRTPEVTCVVVDVSHEDPEVKFNWYVDGVEVHNAKTKPREEQYNSTYRVVSVLTVLHQDWLNGKEYKCKVSNKALPAPIEKTISKAKGQPREPQVYTLPPSRDELTKNQVSLTCLVKGFYPSDIAVEWESNGQPENNYKTTPPVLDSDGSFFLYSKLTVDKSRWQQGNVFSCSVMHEALHNHYTQKSLSLSPGK
light: QIVLSQSPAILSASPGEKVTMTCRASSSVSYIHWFQQKPGSSPKPWIYATSNLASGVPVRFSGSGSGTSYSLTISRVEAEDAATYYCQQWTSNPPTFGGGTKLEIKRTVAAPSVFIFPPSDEQLKSGTASVVCLLNNFYPREAKVQWKVDNALQSGNSQESVTEQDSKDSTYSLSSTLTLSKADYEKHKVYACEVTHQGLSSPVTKSFNRGEC
notes: also called 1-27; 2-9; copies: 2 + 2
For B2, the Mean binding response was found to be 8.3 RU.

B3: anti-CD20 human IgG1 L234D/L235N/G236R (antibody)
heavy: QVQLQQPGAELVKPGASVKMSCKASGYTFTSYNMHWVKQTPGRGLEWIGAIYPGNGDTSYNQKFKGKATLTADKSSSTAYMQLSSLTSEDSAVYYCARSTYYGGDWYFNVWGAGTTVTVSSASTKGPSVFPLAPSSKSTSGGTAALGCLVKDYFPEPVTVSWNSGALTSGVHTFPAVLQSSGLYSLSSVVTVPSSSLGTQTYICNVNHKPSNTKVDKKVEPKSCDKTHTCPPCPAPEDNRGPSVFLFPPKPKDTLMISRTPEVTCVVVDVSHEDPEVKFNWYVDGVEVHNAKTKPREEQYNSTYRVVSVLTVLHQDWLNGKEYKCKVSNKALPAPIEKTISKAKGQPREPQVYTLPPSRDELTKNQVSLTCLVKGFYPSDIAVEWESNGQPENNYKTTPPVLDSDGSFFLYSKLTVDKSRWQQGNVFSCSVMHEALHNHYTQKSLSLSPGK
light: QIVLSQSPAILSASPGEKVTMTCRASSSVSYIHWFQQKPGSSPKPWIYATSNLASGVPVRFSGSGSGTSYSLTISRVEAEDAATYYCQQWTSNPPTFGGGTKLEIKRTVAAPSVFIFPPSDEQLKSGTASVVCLLNNFYPREAKVQWKVDNALQSGNSQESVTEQDSKDSTYSLSSTLTLSKADYEKHKVYACEVTHQGLSSPVTKSFNRGEC
notes: also called 1-26; copies: 2 + 2
With B3, the Mean binding response is 26.5 RU.

B4: anti-CD20 human IgG1 L234D/L235T/G236R (antibody)
heavy: QVQLQQPGAELVKPGASVKMSCKASGYTFTSYNMHWVKQTPGRGLEWIGAIYPGNGDTSYNQKFKGKATLTADKSSSTAYMQLSSLTSEDSAVYYCARSTYYGGDWYFNVWGAGTTVTVSSASTKGPSVFPLAPSSKSTSGGTAALGCLVKDYFPEPVTVSWNSGALTSGVHTFPAVLQSSGLYSLSSVVTVPSSSLGTQTYICNVNHKPSNTKVDKKVEPKSCDKTHTCPPCPAPEDTRGPSVFLFPPKPKDTLMISRTPEVTCVVVDVSHEDPEVKFNWYVDGVEVHNAKTKPREEQYNSTYRVVSVLTVLHQDWLNGKEYKCKVSNKALPAPIEKTISKAKGQPREPQVYTLPPSRDELTKNQVSLTCLVKGFYPSDIAVEWESNGQPENNYKTTPPVLDSDGSFFLYSKLTVDKSRWQQGNVFSCSVMHEALHNHYTQKSLSLSPGK
light: QIVLSQSPAILSASPGEKVTMTCRASSSVSYIHWFQQKPGSSPKPWIYATSNLASGVPVRFSGSGSGTSYSLTISRVEAEDAATYYCQQWTSNPPTFGGGTKLEIKRTVAAPSVFIFPPSDEQLKSGTASVVCLLNNFYPREAKVQWKVDNALQSGNSQESVTEQDSKDSTYSLSSTLTLSKADYEKHKVYACEVTHQGLSSPVTKSFNRGEC
notes: also called 1-30; 2-11; copies: 2 + 2
As for B4, the Mean binding response is 4.3 RU.

B5: anti-CD20 human IgG1 L234E/L235E/G236R (antibody)
heavy: QVQLQQPGAELVKPGASVKMSCKASGYTFTSYNMHWVKQTPGRGLEWIGAIYPGNGDTSYNQKFKGKATLTADKSSSTAYMQLSSLTSEDSAVYYCARSTYYGGDWYFNVWGAGTTVTVSSASTKGPSVFPLAPSSKSTSGGTAALGCLVKDYFPEPVTVSWNSGALTSGVHTFPAVLQSSGLYSLSSVVTVPSSSLGTQTYICNVNHKPSNTKVDKKVEPKSCDKTHTCPPCPAPEEERGPSVFLFPPKPKDTLMISRTPEVTCVVVDVSHEDPEVKFNWYVDGVEVHNAKTKPREEQYNSTYRVVSVLTVLHQDWLNGKEYKCKVSNKALPAPIEKTISKAKGQPREPQVYTLPPSRDELTKNQVSLTCLVKGFYPSDIAVEWESNGQPENNYKTTPPVLDSDGSFFLYSKLTVDKSRWQQGNVFSCSVMHEALHNHYTQKSLSLSPGK
light: QIVLSQSPAILSASPGEKVTMTCRASSSVSYIHWFQQKPGSSPKPWIYATSNLASGVPVRFSGSGSGTSYSLTISRVEAEDAATYYCQQWTSNPPTFGGGTKLEIKRTVAAPSVFIFPPSDEQLKSGTASVVCLLNNFYPREAKVQWKVDNALQSGNSQESVTEQDSKDSTYSLSSTLTLSKADYEKHKVYACEVTHQGLSSPVTKSFNRGEC
notes: also called 1-34; copies: 2 + 2
With B5, the Mean binding response was found to be 30.9 RU.

B6: anti-CD20 human IgG1 L234D/L235R/G236R (antibody)
heavy: QVQLQQPGAELVKPGASVKMSCKASGYTFTSYNMHWVKQTPGRGLEWIGAIYPGNGDTSYNQKFKGKATLTADKSSSTAYMQLSSLTSEDSAVYYCARSTYYGGDWYFNVWGAGTTVTVSSASTKGPSVFPLAPSSKSTSGGTAALGCLVKDYFPEPVTVSWNSGALTSGVHTFPAVLQSSGLYSLSSVVTVPSSSLGTQTYICNVNHKPSNTKVDKKVEPKSCDKTHTCPPCPAPEDRRGPSVFLFPPKPKDTLMISRTPEVTCVVVDVSHEDPEVKFNWYVDGVEVHNAKTKPREEQYNSTYRVVSVLTVLHQDWLNGKEYKCKVSNKALPAPIEKTISKAKGQPREPQVYTLPPSRDELTKNQVSLTCLVKGFYPSDIAVEWESNGQPENNYKTTPPVLDSDGSFFLYSKLTVDKSRWQQGNVFSCSVMHEALHNHYTQKSLSLSPGK
light: QIVLSQSPAILSASPGEKVTMTCRASSSVSYIHWFQQKPGSSPKPWIYATSNLASGVPVRFSGSGSGTSYSLTISRVEAEDAATYYCQQWTSNPPTFGGGTKLEIKRTVAAPSVFIFPPSDEQLKSGTASVVCLLNNFYPREAKVQWKVDNALQSGNSQESVTEQDSKDSTYSLSSTLTLSKADYEKHKVYACEVTHQGLSSPVTKSFNRGEC
notes: also called 1-28; copies: 2 + 2
In the case of B6, the Mean binding response amounted to 47 RU.

B7: anti-CD20 human IgG1 L234E/L235A/G236R (antibody)
heavy: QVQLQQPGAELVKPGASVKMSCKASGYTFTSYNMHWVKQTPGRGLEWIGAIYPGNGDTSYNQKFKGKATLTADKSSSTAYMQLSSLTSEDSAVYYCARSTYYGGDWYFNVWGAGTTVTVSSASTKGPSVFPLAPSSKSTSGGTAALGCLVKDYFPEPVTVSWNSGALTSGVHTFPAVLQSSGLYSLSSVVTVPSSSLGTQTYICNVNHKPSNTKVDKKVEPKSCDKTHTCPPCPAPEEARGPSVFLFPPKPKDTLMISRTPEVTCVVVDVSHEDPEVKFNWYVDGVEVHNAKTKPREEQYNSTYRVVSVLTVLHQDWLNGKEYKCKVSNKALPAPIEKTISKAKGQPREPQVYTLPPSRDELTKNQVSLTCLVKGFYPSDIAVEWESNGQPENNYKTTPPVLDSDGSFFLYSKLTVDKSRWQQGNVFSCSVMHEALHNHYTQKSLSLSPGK
light: QIVLSQSPAILSASPGEKVTMTCRASSSVSYIHWFQQKPGSSPKPWIYATSNLASGVPVRFSGSGSGTSYSLTISRVEAEDAATYYCQQWTSNPPTFGGGTKLEIKRTVAAPSVFIFPPSDEQLKSGTASVVCLLNNFYPREAKVQWKVDNALQSGNSQESVTEQDSKDSTYSLSSTLTLSKADYEKHKVYACEVTHQGLSSPVTKSFNRGEC
notes: also called 1-32; copies: 2 + 2
For the molecule B7, the Mean binding response stood at 44.1 RU.

B8: anti-CD20 human IgG1 L234D/L235V/G236R (antibody)
heavy: QVQLQQPGAELVKPGASVKMSCKASGYTFTSYNMHWVKQTPGRGLEWIGAIYPGNGDTSYNQKFKGKATLTADKSSSTAYMQLSSLTSEDSAVYYCARSTYYGGDWYFNVWGAGTTVTVSSASTKGPSVFPLAPSSKSTSGGTAALGCLVKDYFPEPVTVSWNSGALTSGVHTFPAVLQSSGLYSLSSVVTVPSSSLGTQTYICNVNHKPSNTKVDKKVEPKSCDKTHTCPPCPAPEDVRGPSVFLFPPKPKDTLMISRTPEVTCVVVDVSHEDPEVKFNWYVDGVEVHNAKTKPREEQYNSTYRVVSVLTVLHQDWLNGKEYKCKVSNKALPAPIEKTISKAKGQPREPQVYTLPPSRDELTKNQVSLTCLVKGFYPSDIAVEWESNGQPENNYKTTPPVLDSDGSFFLYSKLTVDKSRWQQGNVFSCSVMHEALHNHYTQKSLSLSPGK
light: QIVLSQSPAILSASPGEKVTMTCRASSSVSYIHWFQQKPGSSPKPWIYATSNLASGVPVRFSGSGSGTSYSLTISRVEAEDAATYYCQQWTSNPPTFGGGTKLEIKRTVAAPSVFIFPPSDEQLKSGTASVVCLLNNFYPREAKVQWKVDNALQSGNSQESVTEQDSKDSTYSLSSTLTLSKADYEKHKVYACEVTHQGLSSPVTKSFNRGEC
notes: also called 1-31; copies: 2 + 2
Turning to B8, the Mean binding response was found to be 27.2 RU.

B9: anti-CD20 human IgG1 L234D/L235M/G236R (antibody)
heavy: QVQLQQPGAELVKPGASVKMSCKASGYTFTSYNMHWVKQTPGRGLEWIGAIYPGNGDTSYNQKFKGKATLTADKSSSTAYMQLSSLTSEDSAVYYCARSTYYGGDWYFNVWGAGTTVTVSSASTKGPSVFPLAPSSKSTSGGTAALGCLVKDYFPEPVTVSWNSGALTSGVHTFPAVLQSSGLYSLSSVVTVPSSSLGTQTYICNVNHKPSNTKVDKKVEPKSCDKTHTCPPCPAPEDMRGPSVFLFPPKPKDTLMISRTPEVTCVVVDVSHEDPEVKFNWYVDGVEVHNAKTKPREEQYNSTYRVVSVLTVLHQDWLNGKEYKCKVSNKALPAPIEKTISKAKGQPREPQVYTLPPSRDELTKNQVSLTCLVKGFYPSDIAVEWESNGQPENNYKTTPPVLDSDGSFFLYSKLTVDKSRWQQGNVFSCSVMHEALHNHYTQKSLSLSPGK
light: QIVLSQSPAILSASPGEKVTMTCRASSSVSYIHWFQQKPGSSPKPWIYATSNLASGVPVRFSGSGSGTSYSLTISRVEAEDAATYYCQQWTSNPPTFGGGTKLEIKRTVAAPSVFIFPPSDEQLKSGTASVVCLLNNFYPREAKVQWKVDNALQSGNSQESVTEQDSKDSTYSLSSTLTLSKADYEKHKVYACEVTHQGLSSPVTKSFNRGEC
notes: also called 1-25; copies: 2 + 2
Regarding B9, the Mean binding response came to 28.4 RU.

B10: anti-CD20 human IgG1 L234E/G236R (antibody)
heavy: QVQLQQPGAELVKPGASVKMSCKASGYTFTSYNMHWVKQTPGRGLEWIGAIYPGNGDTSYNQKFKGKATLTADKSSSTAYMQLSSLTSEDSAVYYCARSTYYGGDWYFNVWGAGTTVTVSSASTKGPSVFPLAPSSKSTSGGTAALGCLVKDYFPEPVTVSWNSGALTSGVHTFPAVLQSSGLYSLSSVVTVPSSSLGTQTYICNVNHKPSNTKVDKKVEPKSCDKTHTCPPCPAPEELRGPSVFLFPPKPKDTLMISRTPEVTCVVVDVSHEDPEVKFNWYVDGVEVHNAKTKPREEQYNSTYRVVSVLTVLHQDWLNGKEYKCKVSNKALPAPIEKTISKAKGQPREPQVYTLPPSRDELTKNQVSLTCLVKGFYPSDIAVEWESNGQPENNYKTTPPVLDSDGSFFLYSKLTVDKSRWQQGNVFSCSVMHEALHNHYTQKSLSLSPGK
light: QIVLSQSPAILSASPGEKVTMTCRASSSVSYIHWFQQKPGSSPKPWIYATSNLASGVPVRFSGSGSGTSYSLTISRVEAEDAATYYCQQWTSNPPTFGGGTKLEIKRTVAAPSVFIFPPSDEQLKSGTASVVCLLNNFYPREAKVQWKVDNALQSGNSQESVTEQDSKDSTYSLSSTLTLSKADYEKHKVYACEVTHQGLSSPVTKSFNRGEC
notes: also called 1-39; 2-15; copies: 2 + 2
As to B10, the Mean binding response is 17.6 RU.

For the origin of these results see patent US20230235013A1 (MABSOLVE, published 2023).
